In paper PMC12865202 (2026) one finds Kd data, which are given here for 1 molecule.

The target of this test is Chicken CapZ (full length α/β) (chicken, UniProt P13127 1-286; P14315 1-277). The test can be described thus: ITC.

In turn, SKREETKLTHFVRERAQGPRGRRLPAHLQAKIKRVSLDKPH [RavB^108-148 synthetic peptide] yielded a dissociation constant Kd of 170 nM.
